Assay [1] concerns the target T1, human TNFR2 (Novoprotein, Cat #C830) (human, UniProt P20333 23-257, limits assumed).
T1 construct: construct not described; also called human TNFR2 protein
T1 sequence (looked up): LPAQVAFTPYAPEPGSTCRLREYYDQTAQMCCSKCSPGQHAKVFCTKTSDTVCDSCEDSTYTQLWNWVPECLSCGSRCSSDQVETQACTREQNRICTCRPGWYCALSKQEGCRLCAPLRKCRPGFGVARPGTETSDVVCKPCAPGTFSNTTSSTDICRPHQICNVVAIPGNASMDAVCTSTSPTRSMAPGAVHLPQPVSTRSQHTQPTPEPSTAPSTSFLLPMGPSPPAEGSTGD
Put plainly: competition ELISA, competitor human TNFα-Biotin; IC50 against 219-WT. Here is the method:
(§1) 1 μg/ml human TNFR2 (Novoprotein, Cat #C830) was pre-coated with 100 μl/well […] in an ELISA plate. All the test TNFR2 antibodies were subjected to 2.5-fold gradient dilution from the highest concentration of 30 μg/ml; the diluted antibodies were mixed with 15 ng/ml human TNFα-Biotin (Acro Biosystem, Cat #TNA-H82E3) in equal volume, respectively; the resulting mixture was added to the ELISA plate at 100 μl/well, and incubated with shaking at room temperature for 2.0 hours. The plate was washed, and then a Streptavidin-HRP working solution (diluted at 1:10000) was added at 100 μl/well, and the mixture was incubated with shaking at room temperature for 40 minutes. The plate was washed again, and then the substrate TMB of HRP was added to develop colour. A stop solution was added to stop the reaction, and then a microplate reader (MD 13) was used to read the absorbance value. The inhibitory curve of an antibody was drawn with antibody concentration as the abscissa and corresponding OD value as the ordinate, and fitted with four parameters (GraphPad Prism9) to calculate the IC50 value. The smaller the IC50 value, the stronger the ability of an antibody to inhibit the binding of human TNFα to human TNFR2. The blocking effect of a humanized antibody was normalized to its corresponding human-murine chimeric antibody WT. The higher the percentage value, the better the inhibitory effect of the humanized antibody.
In general terms: In an ELISA, binding on a coated surface is turned into a signal by an enzyme label.

Assay [2] deals with T1, human TNFR2 (Novoprotein, Cat #C830). Put plainly: competition ELISA, competitor human TNFα-Biotin; IC50 against 224-WT. Here is the method: as §1
Assay [3] concerns the target T2, human TNFR2 on the surface of CHO-TNFR2 cells (human, UniProt P20333 23-461).
T2 construct: whole, on cells
T2 sequence (looked up): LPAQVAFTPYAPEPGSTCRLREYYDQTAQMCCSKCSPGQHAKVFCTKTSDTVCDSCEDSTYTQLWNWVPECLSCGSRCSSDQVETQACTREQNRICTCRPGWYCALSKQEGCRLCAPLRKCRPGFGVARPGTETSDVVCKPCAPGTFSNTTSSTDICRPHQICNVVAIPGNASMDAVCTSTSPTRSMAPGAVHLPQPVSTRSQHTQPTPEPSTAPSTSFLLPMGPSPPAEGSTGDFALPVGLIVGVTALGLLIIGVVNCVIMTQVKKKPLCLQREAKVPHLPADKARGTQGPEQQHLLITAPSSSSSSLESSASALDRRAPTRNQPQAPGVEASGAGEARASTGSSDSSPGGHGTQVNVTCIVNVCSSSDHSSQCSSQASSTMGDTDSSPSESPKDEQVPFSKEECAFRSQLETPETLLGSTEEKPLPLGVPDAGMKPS
Put plainly: competition flow cytometry on CHO-TNFR2 cells, competitor TNFα-biotin; AUC against 224-WT. Here is the method:
CHO stable cells highly expressing human TNFR2 were used for the experiment (the same as CHO-TNFR2 in Example 4). The CHO-TNFR2 cells were digested, washed twice with DPBS, then stained with Live/Dead (L/D) (20 minutes at room temperature), and plated at a density of 1×10⁵ cells/50 μl/well. A test anti-TNFR2 antibody was diluted to 6 μg/ml with a staining buffer as the starting concentration: the antibody was subjected to 3.33-fold gradient dilution, with a total of 7 concentration points. The diluted antibody was added to the plated cells at 50 μl/well, and the mixture was mixed well by gentle pipetting, and incubated at 4° C. for 30 minutes. Then the diluted 100 ng/ml of human TNFα-biotin was added at 100 μl/well, and the mixture was mixed well by gentle pipetting, and then incubated at 4° C. for 30 minutes. The mixture was washed twice with a staining buffer, and then 0.12 μg/ml PE-streptavidin (BioLegend, Cat #405204) was added at 100 μl/well; the resulting mixture was incubated at 4° C. for 30 minutes. The mixture was washed twice with a staining buffer, and then 150 μl of staining buffer was added to resuspend the cells; signals were detected by a flow cytometer (Thermo Attune NxT). The inhibitory curve of an antibody was drawn with antibody concentration as the abscissa and corresponding MFI value as the ordinate, and fitted with four parameters (GraphPad Prism9) to calculate the IC50 value. The smaller the IC50 value, the stronger the ability of an antibody to inhibit the binding of human TNFα to human TNFR2. The blocking effect of a humanized antibody was normalized to its corresponding human-murine chimeric WT antibody. The higher the percentage value, the better the inhibitory effect of the humanized antibody.
On the technique in general: A flow cytometer gives signals particle by particle.

B1: 219-Hu3 (antibody, V domains shown)
VH: QVQLVQSGAEVKKPGSSVKVSCKASGYSFTNYWMNWVRQAPGQGLEWMGMIHPSDTETRLNQNFKDRVTITADKSTSTAYMELSSLRSEDTAVYYCARGEGLGAARSVSMDYWGQGTLVTVSS
VL: DIQMTQSPSSLSASVGDRVTITCRASQDISNYLNWYQQKPDGTVKLLIYYTAILHSGVPSRFSGSGSGTDYSLTISSLQPEDFATYFCQQGNTLPWTFGQGTKVEIK
notes: also called VH5 + VL5
For B1, in assay [1], the “% Relative activity (WT antibody/test antibody)” value stood at 111%.

B2: 219-Hu1 (antibody, V domains shown)
VH: QVQLVQSGAEVKKPGASVKVSCKASGYSFTNYWMNWVRQAPGQRLEWMGMIHPSDTETRLNQNFKDRVTITRDTSASTAYMELSSLRSEDTAVYYCARGEGLGAARSVSMDYWGQGTLVTVSS
VL: DIQMTQSPSSLSASVGDRVTITCRASQDISNYLNWYQQKPDGTVKLLIYYTAILHSGVPSRFSGSGSGTDYSLTISSLQPEDFATYFCQQGNTLPWTFGQGTKVEIK
notes: also called VH3 + VL5
On to B2, for which the “% Relative activity (WT antibody/test antibody)” value in assay [1] worked out at 128%.

B3: 219-Hu2 (antibody, V domains shown)
VH: QVQLVQSGAEVKKPGSSVKVSCKASGYSFTNYWMNWVRQAPGQGLEWMGMIHPSDTETRLNQNFKDKATITADKSTSTAYMELSSLRSEDTAVYYCARGEGLGAARSVSMDYWGQGTLVTVSS
VL: DIQMTQSPSSLSASVGDRVTITCRASQDISNYLNWYQQKPDGTVKLLIYYTAILHSGVPSRFSGSGSGTDYSLTISSLQPEDFATYFCQQGNTLPWTFGQGTKVEIK
notes: also called VH4 + VL5
In the case of B3, the “% Relative activity (WT antibody/test antibody)” value in assay [1] amounted to 120%.

B4: 219-Hu4 (antibody, V domains shown)
VH: QVQLVQSGAEVKKPGSSVKVSCKASGYSFTNYWMNWVKQAPGQGLEWIGMIHPSDTETRLNQNFKDKATLTVDKSTSTAYMELSSLRSEDTAVYYCARGEGLGAARSVSMDYWGQGTLVTVSS
VL: DIQMTQSPSSLSASVGDRVTITCRASQDISNYLNWYQQKPDGTVKLLIYYTAILHSGVPSRFSGSGSGTDYSLTISSLQPEDFATYFCQQGNTLPWTFGQGTKVEIK
notes: also called VH6 + VL5
Consider B4, for which the “% Relative activity (WT antibody/test antibody)” value in assay [1] is 126%.

B5: 219-Hu5 (antibody, V domains shown)
VH: QVQLVQSGAEVKKPGSSVKVSCKASGYSFTNYWMNWVRQAPGQGLEWMGMIHPSDTETRLNQNFKDRVTITVDKSTSTAYMELSSLRSEDTAVYYCARGEGLGAARSVSMDYWGQGTLVTVSS
VL: DIQMTQSPSSLSASVGDRVTITCRASQDISNYLNWYQQKPDGTVKLLIYYTAILHSGVPSRFSGSGSGTDYSLTISSLQPEDFATYFCQQGNTLPWTFGQGTKVEIK
notes: also called VH7 + VL5
For B5, the “% Relative activity (WT antibody/test antibody)” value in assay [1] came out at 136%.

B6: 224-Hu1 (antibody, V domains shown)
VH: QVQLVQSGAEVKKPGASVKVSCKASGFNNKDIYMHWVRQAPGQGLEWIGRIDPATGNTKHDPKFQDRVTMTSDTSTNTVYMELSSLRSEDTAVYYCARSPYGDFGAMDYWGQGTLVTVSS
VL: DIQMTQSPSSLSASVGDRVTITCTASSSVSSNYLHWYQQKPGKAPKLWIYSTSNLPSGVPSRFSGSGSGTDFTLTISSLQPEDFATYYCHQYHRSPWTFGQGTKVEIK
notes: Humanized form of #224; also called VH8 + VL6
As for B6, the “% Relative activity (WT antibody/test antibody)” value in assay [2] came out at 106%; in assay [3] it was 99.2%.

B7: 224-Hu7 (antibody, V domains shown)
VH: QVQLVQSGSELKKPGASVKVSCKASGFNNKDIYMHWVRQAPGQGLEWMGRIDPATGNTKHDPKFQDKAVLSSDTSVSTAYLQISSLKAEDTAVYYCARSPYGDFGAMDYWGQGTLVTVSS
VL: DIQMTQSPSSLSASVGDRVTITCTASSSVSSNYLHWYQQKPGKAPKLLIYSTSNLPSGVPSRFSGSGSGTDFTLTISSLQPEDFATYYCHQYHRSPWTFGQGTKVEIK
notes: Humanized form of #224; also called VH9 + VL10
As to B7, the “% Relative activity (WT antibody/test antibody)” value in assay [2] came to 106%; in assay [3], 91.1%.

B8: 224-Hu3 (antibody, V domains shown)
VH: QVQLVQSGSELKKPGASVKVSCKASGFNNKDIYMHWVRQAPGQGLEWMGRIDPATGNTKHDPKFQDKAVLSSDTSVSTAYLQISSLKAEDTAVYYCARSPYGDFGAMDYWGQGTLVTVSS
VL: DIQMTQSPSSLSASVGDRVTITCTASSSVSSNYLHWYQQKPGKAPKLLIYSTSNLPSGVPSRFSGSGSGTDFTLTISSLQAEDAATYYCHQYHRSPWTFGQGTKVEIK
notes: Humanized form of #224; also called VH9 + VL8
B8: the “% Relative activity (WT antibody/test antibody)” value in assay [2] came to 120%; in assay [3], 95.6%.

B9: 224-Hu4 (antibody, V domains shown)
VH: QVQLVQSGSELKKPGASVKVSCKASGFNNKDIYMHWVRQAPGQGLEWMGRIDPATGNTKHDPKFQDKAVLSSDTSVSTAYLQISSLKAEDTAVYYCARSPYGDFGAMDYWGQGTLVTVSS
VL: DIQMTQSPSSLSASVGDRVTITCTASSSVSSNYLHWYQQKPGKAPKLWIYSTSNLPSGVPSRFSGSGSGTDFTLTISSLQPEDFATYYCHQYHRSPWTFGQGTKVEIK
notes: Humanized form of #224; also called VH9 + VL6
With B9, the results for the “% Relative activity (WT antibody/test antibody)” value in assay [2] and in assay [3] were 105% and 97.3%, respectively.

B10: 224-Hu5 (antibody, V domains shown)
VH: QVQLVQSGSELKKPGASVKVSCKASGFNNKDIYMHWVRQAPGQGLEWMGRIDPATGNTKHDPKFQDKAVLSSDTSVSTAYLQISSLKAEDTAVYYCARSPYGDFGAMDYWGQGTLVTVSS
VL: DIQMTQSPSSLSASVGDRVTITCTASSSVSSNYLHWYQQKPGKAPKLLIYSTSNLPSGVPSRFSGSGSGTDYSLTISSLQPEDFATYYCHQYHRSPWTFGQGTKVEIK
notes: Humanized form of #224; also called VH9 + VL9
With B10, the “% Relative activity (WT antibody/test antibody)” value is 93.1% in assay [2] and 94.4% in assay [3].

B11: 224-Hu2 (antibody, V domains shown)
VH: QVQLVQSGSELKKPGASVKVSCKASGFNNKDIYMHWVRQAPGQGLEWMGRIDPATGNTKHDPKFQDKAVLSSDTSVSTAYLQISSLKAEDTAVYYCARSPYGDFGAMDYWGQGTLVTVSS
VL: DIQMTQSPSSLSASVGDRVTITCTASSSVSSNYLHWYQQKPGSSPKLWIYSTSNLPSGVPSRFSGSGSGTDFTLTISSLQPEDFATYYCHQYHRSPWTFGQGTKVEIK
notes: Humanized form of #224; also called VH9 + VL7
As to B11, the figures for the “% Relative activity (WT antibody/test antibody)” value in assay [2] and in assay [3] were 121% and 105%, respectively.

B12: 224-Hu6 (antibody, V domains shown)
VH: QVQLVQSGAEVKKPGASVKVSCKASGFNNKDIYMHWVRQAPGQGLEWIGRIDPATGNTKHDPKFQDRVTMTSDTSTNTVYMELSSLRSEDTAVYYCARSPYGDFGAMDYWGQGTLVTVSS
VL: DIQMTQSPSSLSASVGDRVTITCTASSSVSSNYLHWYQQKPGSSPKLWIYSTSNLPSGVPSRFSGSGSGTDFTLTISSLQPEDFATYYCHQYHRSPWTFGQGTKVEIK
notes: Humanized form of #224; also called VH8 + VL7
Turning to B12, the “% Relative activity (WT antibody/test antibody)” value in assay [2] was determined as 115%; in assay [3], 99.4%.

The values are drawn from patent publication US20240109974A1 (SHANDONG SIMCERE BIOPHARMACEUTICAL, published 2024).
